The source of these data is publication PMC6685058 (2019).

Sequences and labels used below:
B1: AD-CEBP-1(aa 1–319) FL [C. elegans] / BD-IMA-3(aa 278–514) [C. elegans] (parent complex)
chain 1: MYSKLNYSHQKGDQALKHPHLVRLQQSEVRGFTDMPNNGASTSSAGSFARQDSLTIAASLQQRDRERHPVDFMETELDLGDYLQVLHDLDVPTDNVDFDDAELQKCNILYDGEHPYEQPELNGYERHVAYGTGYRVPGDYDQDGYKMNCEVKAETPDFGATKTRRAVKRPVPYDDYQKEYSEESSDMTDNDGSVDDSYFEPKSKKTKSAGLENFKPQTRARKYKLKADEEKAEPTYKLKRARNNDAVRKSRKKAKELQDKKEAEHDKMKRRIAELEGLLQSERDARRRDQDTLEQLLRNKGPMKEQRMPQRHILENFNK
chain 2: VVTHLVPLLGHVDVKVQTAALRAVGNIVTGTDEQTQLVLDSGVLRFMPGLLAHYKEKINKEAVWFVSNITAGNQQQVQDVFDAGIMPMIIHLLDRGDFPTQKEAAWAISNVTISGRPNQVEQMVKLGVLRPFCAMLSCTDSQIIQVVLDGINNILKMAGEAAEQVTSEIEECGGLDKIENLQNHENEDIYKLAFEIIDNFFSSDDETGNVEGAQSSAFGGDVPPVPDAPNGGWNFGK

In this assay the parent is B1. The assay can be described thus: yeast two-hybrid, β-galactosidase activity; parent: 110; read off a plot.
As to chain 1 MYSKLNYSHQKGDQALKHPHLVRLQQSEVRGFTDMPNNGASTSSAGSFARQDSLTIAASLQQRDRERHPVDFMETELDLGDYLQVLHDLDVPTDNVDFDDAELQKCNILYDGEHPYEQPELNGYERHVAYGTGYRVPGDYDQDGYKMNCEVKAETPDFGATKTRRAVKRPVPYDDYQKEYSEESSDMTDNDGSVDDSYFEPKSKKTKSAGLENFKPQTRARKYKLKADEEKAEPTYKLAAARNNDAVRKSRKKAKELQDKKEAEHDKMKRRIAELEGLLQSERDARRRDQDTLEQLLRNKGPMKEQRMPQRHILENFNK [chain 1 K239A, chain 1 R240A], the response is approximately 190 Miller units.
For chain 1 MYSKLNYSHQKGDQALKHPHLVRLQQSEVRGFTDMPNNGASTSSAGSFARQDSLTIAASLQQRDRERHPVDFMETELDLGDYLQVLHDLDVPTDNVDFDDAELQKCNILYDGEHPYEQPELNGYERHVAYGTGYRVPGDYDQDGYKMNCEVKAETPDFGATATARAVAAPVPYDDYQKEYSEESSDMTDNDGSVDDSYFEPKSKKTKSAGLENFKPQTRARKYKLKADEEKAEPTYKLKRARNNDAVRKSRKKAKELQDKKEAEHDKMKRRIAELEGLLQSERDARRRDQDTLEQLLRNKGPMKEQRMPQRHILENFNK [chain 1 K162A, chain 1 R164A, chain 1 K168A, chain 1 R169A] the value was approximately 17 Miller units.
With chain 1 MYSKLNYSHQKGDQALKHPHLVRLQQSEVRGFTDMPNNGASTSSAGSFARQDSLTIAASLQQRDRERHPVDFMETELDLGDYLQVLHDLDVPTDNVDFDDAELQKCNILYDGEHPYEQPELNGYERHVAYGTGYRVPGDYDQDGYKMNCEVKAETPDFGATKTRRAVKRPVPYDDYQKEYSEESSDMTDNDGSVDDSYFEPKSAATASAGLENFKPQTRARKYKLKADEEKAEPTYKLKRARNNDAVRKSRKKAKELQDKKEAEHDKMKRRIAELEGLLQSERDARRRDQDTLEQLLRNKGPMKEQRMPQRHILENFNK [chain 1 K204A, chain 1 K205A, chain 1 K207A], the response is approximately 110 Miller units.
